Source: patent publication US20130210034A1, “COMPLEX PHOSPHOPROTEIN ACTIVATION PROFILES” (BECKMAN COULTER, INC., priority 2005, published 2013)
Where “and” joins values, the source holds several entries; their conditions need not be identical. Equal values may be shown once.

What was measured:
Assay type in all cases: cell-based, human
pSTAT3 [1] = assay: Cytokine-stimulated phosphorylation in immunophenotypically defined cell populations from healthy donor BM (flow cytometry); settings: for pSTAT3 Percent (%) Responding Cells, Mean / pSTAT3 S/N ratio: healthy donor BM, mean ± SD
Experimental: (§1) Bone marrow (BM) samples were collected in 7.5 mL Iscove's modified Dulbecco's medium (IMDM) supplemented with 100U penicillin, 0.01 mg/mL streptomycin, and 70 μg/mL heparin sodium salt from 10 patients undergoing hip replacement surgery, who were otherwise healthy. These patients were from a pool of surgery patients, age 49 to 77, and represented […] patients. […] These BM samples were rinsed twice with IMDM to release cells, filtered using a 100 μm Nylon cell strainer to remove marrow particles, and centrifuged for at RT fro 7 minutes at 200 g. The cell pellet was washed twice with sterile IMDM to remove traces of fat and re-suspended in IMDM to a concentration of 3×10^7 cells/mL.
(§2) To assess the signal transduction response after growth factor simulation, a series comprising two sets of tubes including about 3×10^6 cells/100 μL were incubated at 37° C. for 30 minutes. After this pre-incubation period, tubes with then processes with either a stimulant or inhibitor. […] To examine the effects of protein phosphorylation inhibition, tubes were incubated with an inhibitor cocktail comprising 100 μM/100 μL UO126, 1 μM/100 μL LY294002, and 1 μM/100 μL rapamycin. One unstimulated tube receiving no stimulant or inhibitor was processed to assess basal levels of phospho-protein expression. After stimulation the cells were immediately fixed in 10% formaldehyde solution at 37° C. Pre-labeling with CD13, CD16 and CD64 antibodies was carried out 20 minutes prior to formaldehyde fixation. After fixation, one set of tubes was permeabilized without methanol for pAKT, pERK and pS6 staining and the other for 80% methanol permeabilized for pSTAT3 and pSTAT5 staining. After permeablization, the cells were washed in PBS with 2% BSA and blocked by re-suspended in 75 μL of PBS comprising 25% heat inactivated normal mouse serum, 25% normal rabbit serum. To stain cells with fluorescent conjugated monoclonal antibodies, samples were incubated on ice for 45 minutes in 100 μL of an antibody staining solution including either: 1) CD15-Pacific Orange, CD34-Phycoerythrin-Texas Red, CD117-Phycoerythrin-Cyanin 5.5, CD45-Allophycocyanin-Alexa Fluor 750 (or CD45-Pacific Orange, in which case CD15-Pacific Orange was omitted), pS6-Pacific Blue, pERK-Alexa Fluor 488 and pAKT-Alexa Fluor 647 or 2) CD15-Pacific Orange, CD34-Phycoerythrin-Texas Red, CD117-Phycoerythrin-Cyanin 5.5, CD45-Allophycocyanin-Alexa Fluor 750 or CD45-Pacific Blue, pSTAT3-Alexa Fluor 488 and pSTAT5-Phycoerythrin. The stained cells were washed twice with ice cold PBS containing 2% BSA and centrifuged at 800 g for 6 minutes at 4° C. The supernatant was discarded and cells re-suspended in 250 μL of chilled wash buffer for data acquisition. Stained cells were examined using either GALIOS flow cytometer (Beckman Coulter) or CYAN ADP (Beckman Coulter) equipped with 488 nm, 405 nm and 635 nm lasers to detect the degree of fluorescence. Data were analyzed using FCS Express (De Novo Software, CA) analysis software.
(§3) Specific phosphoprotein expression of pERK, pS6, pAKT, pSTAT5, and pSTAT3 was examined in seven discrete phenotypically defined populations based on 7-color immunophenotyping (FIG. 1). The percent of responding (phosphorprotein positive) cells for each of these populations was determined from individual single parameter histograms based on a fixed integration region set on the inhibitor treated control at about 3% positives.

pERK = assay: as above; settings: healthy donor BM, mean ± SD
Experimental: as §1, §2, §3

pAKT = assay: as above; settings: healthy donor BM, mean ± SD
Experimental: as §1, §2, §3

pSTAT5 [2] = assay: as above; settings: for pSTAT5 Percent (%) Responding Cells, Mean / pSTAT5 S/N ratio: healthy donor BM, mean ± SD
Experimental: as §1, §2, §3

pS6 = assay: as above; settings: healthy donor BM, mean ± SD
Experimental: as §1, §2, §3

pSTAT3 [3] = assay: Cytokine-stimulated phosphorylation in AML cell populations (BM or PB of AML patients); settings: patient AML3 (Example 3)
Experimental: as §2, §3
(§4) Using normal BM signaling profiles of Example 1 as comparison, analysis of 14 AML samples was carried out to identify differences in signaling responses. White blood cells from BM or peripheral blood (PB) samples were obtained from 14 diagnosed AML patients undergoing routine clinical flow cytometry analysis using IRB approved protocols. The AML patients included newly diagnosed AML, AMLs arising in a background of MDS, therapy related AMLs and previously diagnosed AML post therapy. The median age of the patients at diagnosis was 51 years (range: 29-75 years) and represented 5 female and 9 male patients. The median white blood cell was 6.4 million/mL (range: 0.9-106 M/mL) and the BM morphologic blast count was an average of 46% (range: 0%-90%).
(§5) Experiments performed to assess the signal transduction response after growth factor simulation were performed as described for Example 1.

pSTAT5 [4] = assay: as above; settings: patient AML3 (Example 3)
Experimental: as §2, §3, §4, §5

lymphocytes = assay: Phosphoprotein modulation in lymphocytes of normal BM (Example 1, internal negative control); settings: lymphocytes of normal BM (Examples 1-2)
Experimental: To assess the signal transduction response after growth factor simulation, a series comprising two sets of tubes including about 3×10^6 cells/100 μL were incubated at 37° C. for 30 minutes. After this pre-incubation period, tubes with then processes with either a stimulant or inhibitor. […] To examine the effects of protein phosphorylation inhibition, tubes were incubated with an inhibitor cocktail comprising 100 μM/100 μL UO126, 1 μM/100 μL LY294002, and 1 μM/100 μL rapamycin. One unstimulated tube receiving no stimulant or inhibitor was processed to assess basal levels of phospho-protein expression. After stimulation the cells were immediately fixed in 10% formaldehyde solution at 37° C. […] Stained cells were examined using either GALIOS flow cytometer (Beckman Coulter) or CYAN ADP (Beckman Coulter) equipped with 488 nm, 405 nm and 635 nm lasers to detect the degree of fluorescence. Data were analyzed using FCS Express (De Novo Software, CA) analysis software.
The tables include the mean and the standard deviation of the percent responding cell population as well as the signal/noise (S/N) ratio for the 5 different phosphoproteins in response to the above-mentioned stimuli in each of these populations. […] Lymphocytes thus served as a de facto internal negative control and their median fluorescence intensity (MFI) was used for normalization of the phosphoprotein measurements.

B1: Granulocyte Colony-Stimulating Factor (protein, UniProt P09919 31-207, looked up)
Granulocyte …: TPLGPASSLPQSFLLKCLEQVRKIQGDGAALQEKLVSECATYKLCHPEELVLLGHSLGIPWAPLSSCPSQALQLAGCLSQLHSGLFLYQGLLQALEGISPELGPTLDTLQLDVADFATTIWQQMEELGMAPALQPTQGAMPAFASAFQRRAGGVLVASHLQSFLEVSYRVLRHLAQP
notes: colony-stimulating cytokine
pSTAT3 [1]; CD34^+ (CD34^+/CD117^+ cells)
  pSTAT3 Percent (%) Responding Cells, Mean: 77.8 ± 19.1%
  pSTAT3 S/N ratio: 9.8 ± 3.0
pSTAT3 [1]; CD117^+ (CD34^−/CD117^+ cells)
  pSTAT3 Percent (%) Responding Cells, Mean: 46.2 ± 26.8%
  pSTAT3 S/N ratio: 9.9 ± 4.6
pSTAT3 [1]; G1, immature myeloid cells
  pSTAT3 Percent (%) Responding Cells, Mean: 91.2 ± 20.4%
  pSTAT3 S/N ratio: 13.3 ± 4.8
pSTAT3 [1]; G2, intermediate myeloid cells
  pSTAT3 Percent (%) Responding Cells, Mean: 91.3 ± 19.3%
  pSTAT3 S/N ratio: 13.3 ± 5.1
pSTAT3 [1]; G3, mature myeloid cells
  pSTAT3 Percent (%) Responding Cells, Mean: 89.2 ± 24.9%
  pSTAT3 S/N ratio: 14.0 ± 5.5
pSTAT3 [1]; Mono, monocytes
  pSTAT3 Percent (%) Responding Cells, Mean: 27.8 ± 31.8%
  pSTAT3 S/N ratio: 6.1 ± 2.7
pSTAT3 [1]; Table 7 comparison value, matches percent responding CD34^+ cells of Table 5
  pSTAT3, Normal Sample: 77.8
pERK; CD34^+ (CD34^+/CD117^+ cells)
  pERK Percent (%) Responding Cells, Mean: 47.1% and 47.1 ± 12.6%
  pERK S/N ratio: 10.2 and 10.2 ± 2.7
pERK; CD117^+ (CD34^−/CD117^+ cells)
  pERK Percent (%) Responding Cells, Mean: 39.2 ± 13.9%
  pERK S/N ratio: 6.8 ± 2.5
pERK; G1, immature myeloid cells
  pERK Percent (%) Responding Cells, Mean: 22.9% and 22.9 ± 24.1%
  pERK S/N ratio: 4.2 ± 1.6
pERK; G2, intermediate myeloid cells
  pERK Percent (%) Responding Cells, Mean: 55.2 ± 33.1%
  pERK S/N ratio: 5.8 ± 2.4
pERK; G3, mature myeloid cells
  pERK Percent (%) Responding Cells, Mean: 46.0% and 46.0 ± 30.3%
  pERK S/N ratio: 6.2 ± 2.2
pERK; Mono, monocytes
  pERK Percent (%) Responding Cells, Mean: 12.7 ± 8.8%
  pERK S/N ratio: 3.2 ± 1.6
pAKT; CD34^+ (CD34^+/CD117^+ cells)
  pAKT Percent (%) Responding Cells, Mean: 22.5% and 22.5 ± 18.4%
  pAKT S/N ratio: 6.4 ± 5.9
pAKT; CD117^+ (CD34^−/CD117^+ cells)
  pAKT Percent (%) Responding Cells, Mean: 16.6 ± 19.8%
  pAKT S/N ratio: 2.7 ± 1.8
pAKT; G1, immature myeloid cells
  pAKT Percent (%) Responding Cells, Mean: 5.3 ± 10.9%
  pAKT S/N ratio: 2.5 ± 1.5
pAKT; G2, intermediate myeloid cells
  pAKT Percent (%) Responding Cells, Mean: 4.1 ± 3.3%
  pAKT S/N ratio: 2.5 ± 1.2
pAKT; G3, mature myeloid cells
  pAKT Percent (%) Responding Cells, Mean: 4.4 ± 3.1%
  pAKT S/N ratio: 2.8 ± 1.4
pAKT; Mono, monocytes
  pAKT Percent (%) Responding Cells, Mean: 4.1 ± 4.9%
  pAKT S/N ratio: 2.6 ± 1.2
pSTAT5 [2]; CD34^+ (CD34^+/CD117^+ cells)
  pSTAT5 Percent (%) Responding Cells, Mean: 82.6 ± 14.0%
  pSTAT5 S/N ratio: 25.2 and 25.2 ± 13.3
pSTAT5 [2]; CD117^+ (CD34^−/CD117^+ cells)
  pSTAT5 Percent (%) Responding Cells, Mean: 49.8 ± 25.2%
  pSTAT5 S/N ratio: 17.0 ± 11.9
pSTAT5 [2]; G1, immature myeloid cells
  pSTAT5 Percent (%) Responding Cells, Mean: 70.9 ± 26.5%
  pSTAT5 S/N ratio: 8.7 and 8.7 ± 1.9
pSTAT5 [2]; G2, intermediate myeloid cells
  pSTAT5 Percent (%) Responding Cells, Mean: 71.6 ± 22.0%
  pSTAT5 S/N ratio: 9.7 ± 2.3
pSTAT5 [2]; G3, mature myeloid cells
  pSTAT5 Percent (%) Responding Cells, Mean: 71.4 ± 17.7%
  pSTAT5 S/N ratio: 11.7 and 11.7 ± 3.0
pSTAT5 [2]; Mono, monocytes
  pSTAT5 Percent (%) Responding Cells, Mean: 29.5 ± 19.9%
  pSTAT5 S/N ratio: 5.9 ± 2.0
pSTAT5 [2]; Table 7 comparison value, matches percent responding CD34^+ cells of Tables 1-5
  pSTAT5, Normal Sample: 82.6
pS6; CD34^+ (CD34^+/CD117^+ cells)
  pS6 Percent (%) Responding Cells, Mean: 52% and 52.0 ± 34.2%
  pS6 S/N ratio: 30.7 ± 25.2
pS6; CD117^+ (CD34^−/CD117^+ cells)
  pS6 Percent (%) Responding Cells, Mean: 41.5 ± 26.5%
  pS6 S/N ratio: 12.9 ± 10.1
pS6; G1, immature myeloid cells
  pS6 Percent (%) Responding Cells, Mean: 2.7 ± 1.9%
  pS6 S/N ratio: 4.0 ± 2.3
pS6; G2, intermediate myeloid cells
  pS6 Percent (%) Responding Cells, Mean: 2.9 ± 2.3%
  pS6 S/N ratio: 3.7 ± 2.1
pS6; G3, mature myeloid cells
  pS6 Percent (%) Responding Cells, Mean: 4.2 ± 3.0%
  pS6 S/N ratio: 4.0 ± 2.4
pS6; Mono, monocytes
  pS6 Percent (%) Responding Cells, Mean: 42.2% and 42.2 ± 30.2%
  pS6 S/N ratio: 17.2 ± 16.8
pSTAT3 [3]
  pSTAT3, AML Sample: 7.0
pSTAT5 [4]
  pSTAT5, AML Sample: 8.3
lymphocytes
  Modulation of phosphoprotein epitopes (pERK, pS6, pAKT, pSTAT3 or pSTAT5) in lymphocytes: no response
